Drawing on US20120141463A1, this text covers ADCC activity (% cytotoxicity, LDH release, PBMC effectors) for one molecule.

The assay concerns the target membrane anchored IgE on transfected 293 cells (human) (UniProt P01854). As to the kind of experiment: cell-based or functional assay.

Chain of membrane anchored IgE on transfected 293 cells (human) (P01854 whole entry): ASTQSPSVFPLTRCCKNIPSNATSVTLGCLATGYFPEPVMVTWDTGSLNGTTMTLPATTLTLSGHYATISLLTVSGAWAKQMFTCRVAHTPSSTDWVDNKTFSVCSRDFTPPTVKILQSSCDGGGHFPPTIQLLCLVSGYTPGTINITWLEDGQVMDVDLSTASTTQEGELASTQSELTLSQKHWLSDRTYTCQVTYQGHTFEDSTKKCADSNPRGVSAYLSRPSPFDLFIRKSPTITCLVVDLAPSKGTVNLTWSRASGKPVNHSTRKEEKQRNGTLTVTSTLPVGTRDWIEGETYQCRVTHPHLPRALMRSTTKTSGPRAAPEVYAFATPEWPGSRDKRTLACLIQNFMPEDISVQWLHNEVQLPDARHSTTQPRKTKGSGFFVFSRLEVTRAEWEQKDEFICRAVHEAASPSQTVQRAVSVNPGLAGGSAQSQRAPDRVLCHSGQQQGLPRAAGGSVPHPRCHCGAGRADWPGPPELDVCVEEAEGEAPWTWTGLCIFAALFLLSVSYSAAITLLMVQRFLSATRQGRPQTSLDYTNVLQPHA

B1: D5 antibody (antibody, V domains shown)
VH: EVQLLESGGGLVQPGGSLRLSCAASGFTFSKYHMVWVRQAPGKGLEWVSSIGPSGGNTYYADSVKGRFTISRDNSKNTLYLQMNSLRAEDTATYYCARALGATFDYWGQGTLVTVSS
VL: DIQMTQSPLSLPVTLGQPASISCKSSQSLVYRDGITYLSWFQQRPGQSPRRLIYKVSNRDSGVPDRFSGSGSDSNFTLKISSVEAEDVGLYFCMQGSHWPFTFGPGTKVDIKR
In turn, B1 showed an ADCC activity (% cytotoxicity, LDH release, PBMC effectors) of less than 70%.
